Results published in the RNAGym collection of RNA variant scans (doi:10.1093/molbev/msab373).

B1: Azoarcus group I ribozyme (parent)
chain: GUGCCUUGCGCCGGGAAACCACGCAAGGGAUGGUGUCAAAUUCGGCGAAACCUAAGCGCCCGCCCGGGCGUAUGGCAACGCCGAGCCAAGCUUCGGCGCCUGCGCCGAUGAAGGUGUAGAGACUAGACGGCACCCACCUAAGGCAAACGCUAUGGUGAAGGCAUAGUCCAGGGAGUGGCGAAAGUCACACAAACCGG

Variants of: B1
Assay: reverse-splicing fitness (ratio to wild type); higher = more active; in vitro selection; Mg2+ level not given
Outline: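 An in vitro group I ribozyme library with randomized positions was T7-transcribed and gel-purified. In triplicate, 10 pmol RNA in EPPS pH 7.5 was reacted with 50 pmoles of a 30-nt RNA substrate for 1 h at 37 °C across several added MgCl2 levels (1–48 mM), then stopped with EDTA. Products were reverse transcribed from a substrate-complementary primer, PCR-amplified and sequenced (HiSeq 4000). Fitness is a variant's read proportion after selection over that before, normalised to wild type.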

Variant	reverse-splicing fitness
C82G A111C A145G C150A C169G U176A	0.0149
C82G A111C A145G C150A C169G U176C	0.0256
C82G A111C A145G C150A C169G U176G	0.00825
C82G A111C A145G C150U U176A	0.0896
C82G A111C A145G C150U U176G	0.0306
C82G A111C A145G C150U U176C	0.11
C82G A111C A145C C150A C169G U176A	0.0237
C82G A111C A145C C150A C169G U176G	0.00878
C82G A111C A145C C150A C169G U176C	0.0224
C82G A111G A120C A145C C150G C169A U176G	0.00627
C82G A111G A120C A145C C150G C169A U176C	0.0103
C82G A111G A120C A145C C150G C169A U176A	0.0108
C82G A111C A120U C169U U176C	0.00475
C82G A111C A120U C169U U176G	0.00247
C82G A111C A120U C169U U176A	0.00632
C82G A111G A120C A145C C150A C169G U176C	0.0173
C82G A111G A120C A145C C150A C169G U176G	0.00633
C82G A111G A120C A145C C150A C169G U176A	0.026
C82G A111C A145C C150A C169G	0.00856
C82G A111C A145C C150A C169U	0.00955
C82G A111C A145C C150A C169A	0.00842
C82G A111C A145G C169U U176C	0.0148
C82G A111C A145G C169U U176G	0.00729
C82G A111C A145G C169U U176A	0.0152

Variant	reverse-splicing fitness
C82G A111C A145G C169G U176C	0.0315
C82G A111C A145G C169G U176A	0.0207
C82G A111C A145G C169G U176G	0.00727
C82G A111C A145U C169G	0.0102
C82G A111C A145U C169A	0.00813
C82G A111C A145U C169U	0.0133
C82G A111C C150A U176A	0.0223
C82G A111C C150A U176C	0.0293
C82G A111C C150A U176G	0.0116
C82G A111C A120U C150A C169U	0.00505
C82G A111C A145U U176A	0.138
C82G A111C A145U U176G	0.0645
C82G A111C A145U U176C	0.136
C82G A111C A145U C150A C169U U176A	0.0139
C82G A111C A145U C150A C169U U176G	0.00816
C82G A111C A145U C150A C169U U176C	0.014
C82G A111C A120U C169A	0.00474
C82G A111C A120U C169G	0.00478
C82G A111C A120U C169U	0.00571
C82G A111C C150A C169G U176C	0.024
C82G A111C C150A C169G U176A	0.0173
C82G A111C C150A C169G U176G	0.00931
C82G A111C C150U U176A	0.0699
C82G A111C C150U U176G	0.0217

Variant	reverse-splicing fitness
C82G A111C C150U U176C	0.0801
C82G A111C A145G C150U C169A U176G	0.00789
C82G A111C A145G C150U C169A U176C	0.0146
C82G A111C A145G C150U C169A U176A	0.0153
C82G A111C C150U C169G U176A	0.0133
C82G A111C C150U C169G U176C	0.0174
C82G A111C C150U C169G U176G	0.00784
C82G A111C A145C C150G	0.0271
C82G A111C A145C C150A	0.016
C82G A111C A145C C150U	0.0631
C82G A111C A120U C150A C169U U176C	0.00469
C82G A111C A120U C150A C169U U176G	0.00298
C82G A111C A120U C150A C169U U176A	0.00691
C82G A111C A120U C150U C169A U176A	0.00515
C82G A111C A120U C150U C169A U176G	0.00243
C82G A111C A120U C150U C169A U176C	0.00319
C82G A111C A145C C150U U176C	0.044
C82G A111C A145C C150U U176G	0.0162
C82G A111C A145C C150U U176A	0.0341
C82G A111C A145G C150G C169U U176A	0.0103
C82G A111C A145G C150G C169U U176G	0.00728
C82G A111C A145G C150G C169U U176C	0.0116
C82G A111C C150A C169A	0.011
C82G A111C C150A C169U	0.0119

Variant	reverse-splicing fitness
C82G A111C C150A C169G	0.00787
C82G A111C C169A U176A	0.0198
C82G A111C C169A U176G	0.00611
C82G A111C C169A U176C	0.023
C82G A111C A145C C169G U176A	0.0274
C82G A111C A145C C169G U176G	0.00663
C82G A111C A145C C169G U176C	0.0197
C82G A111C A145U C150A C169A U176C	0.0134
C82G A111C A145U C150A C169A U176G	0.00941
C82G A111C A145U C150A C169A U176A	0.0135
C82G A111C A145C C150G C169U	0.00892
C82G A111C A145C C150G C169A	0.00941
C82G A111C A145C C150G C169G	0.00675
C82G A111C A120U C150G C169U U176G	0.00294
C82G A111C A120U C150G C169U U176C	0.00676
C82G A111C A120U C150G C169U U176A	0.00494
C82G A111C A145C U176A	0.126
C82G A111C A145C U176G	0.0504
C82G A111C A145C U176C	0.137
C82G A111C A120U C150U C169U U176A	0.00688
C82G A111C A120U C150U C169U U176C	0.00485
C82G A111C A120U C150U C169U U176G	0.0024
C82G A111C C169U U176G	0.00759
C82G A111C C169U U176A	0.0194

Variant	reverse-splicing fitness
C82G A111C C169U U176C	0.0154
C82G A111C C150A C169A U176G	0.00921
C82G A111C C150A C169A U176A	0.0183
C82G A111C C150A C169A U176C	0.0158
C82G A111C A145G C150A C169A U176C	0.0204
C82G A111C A145G C150A C169A U176A	0.0179
C82G A111C A145G C150A C169A U176G	0.0086
C82G A111C A145U C150U C169A U176G	0.00772
C82G A111C A145U C150U C169A U176A	0.0121
C82G A111C A145U C150U C169A U176C	0.0132
C82G A111C A145G C169A U176C	0.0311
C82G A111C A145G C169A U176A	0.0222
C82G A111C A145G C169A U176G	0.00852
C82G A111C A145C C150U C169A U176G	0.00839
C82G A111C A145C C150U C169A U176C	0.0132
C82G A111C A145C C150U C169A U176A	0.0156
C82G A111C A120U C150A U176A	0.00581
C82G A111C A120U C150A U176C	0.00693
C82G A111C A120U C150A U176G	0.00333
C82G A111C A145U C150A C169U	0.0112
C82G A111C A145U C150A C169G	0.0077
C82G A111C A145U C150A C169A	0.00994
C82G A111C A145U C150G C169U U176C	0.0123
C82G A111C A145U C150G C169U U176G	0.00704

Variant	reverse-splicing fitness
C82G A111C A145U C150G C169U U176A	0.00811
C82G A111C A145C C150G U176G	0.00447
C82G A111C A145C C150G U176C	0.0203
C82G A111C A145C C150G U176A	0.0132
C82G A111C A145G C169A	0.0104
C82G A111C A145G C169G	0.00916
C82G A111C A145G C169U	0.0141
C82G A111C A145C C150U C169U	0.0113
C82G A111C A145C C150U C169G	0.00777
C82G A111C A145C C150U C169A	0.00808
C82G A111C A145C C150A C169A U176G	0.00782
C82G A111C A145C C150A C169A U176A	0.0136
C82G A111C A145C C150A C169A U176C	0.00947
C82G A111C A145U C150A U176G	0.0105
C82G A111C A145U C150A U176A	0.0202
C82G A111C A145U C150A U176C	0.0248
C82G A111C A145G C150U C169A	0.0097
C82G A111C A145G C150U C169G	0.00884
C82G A111C A145G C150U C169U	0.0115
C82G A111C A145C C150G C169G U176A	0.00893
C82G A111C A145C C150G C169G U176C	0.0101
C82G A111C A145C C150G C169G U176G	0.00664
C82G A111C C150G C169U U176C	0.0127
C82G A111C C150G C169U U176A	0.00763

Variant	reverse-splicing fitness
C82G A111C C150G C169U U176G	0.00599
C82G A111C A145G C150U C169U U176C	0.0127
C82G A111C A145G C150U C169U U176A	0.0129
C82G A111C A145G C150U C169U U176G	0.0071
C82G A111C A145G C150G U176G	0.00754
C82G A111C A145G C150G U176A	0.0138
C82G A111C A145G C150G U176C	0.0214
C82G A111C A120U C169G U176A	0.00344
C82G A111C A120U C169G U176C	0.00367
C82G A111C A120U C169G U176G	0.00213
C82G A111C A145C C169A U176G	0.00713
C82G A111C A145C C169A U176C	0.015
C82G A111C A145C C169A U176A	0.0184
C82G A111C A145U C150U C169G U176C	0.0196
C82G A111C A145U C150U C169G U176G	0.00868
C82G A111C A145U C150U C169G U176A	0.0124
C82G A111C A145U C150U C169U U176C	0.0115
C82G A111C A145U C150U C169U U176A	0.0161
C82G A111C A145U C150U C169U U176G	0.00778
C82G A111C A120U C150G C169G U176G	0.00302
C82G A111C A120U C150G C169G U176C	0.00379
C82G A111C A120U C150G C169G U176A	0.0049
C82G A111C A145C C150U C169U U176G	0.00739
